Results: publication PMC13123425

Molecular target: human VWF-A2 fragment (human)

Sequence of human recombinant wild-type complement factor H (P08603 19-1231): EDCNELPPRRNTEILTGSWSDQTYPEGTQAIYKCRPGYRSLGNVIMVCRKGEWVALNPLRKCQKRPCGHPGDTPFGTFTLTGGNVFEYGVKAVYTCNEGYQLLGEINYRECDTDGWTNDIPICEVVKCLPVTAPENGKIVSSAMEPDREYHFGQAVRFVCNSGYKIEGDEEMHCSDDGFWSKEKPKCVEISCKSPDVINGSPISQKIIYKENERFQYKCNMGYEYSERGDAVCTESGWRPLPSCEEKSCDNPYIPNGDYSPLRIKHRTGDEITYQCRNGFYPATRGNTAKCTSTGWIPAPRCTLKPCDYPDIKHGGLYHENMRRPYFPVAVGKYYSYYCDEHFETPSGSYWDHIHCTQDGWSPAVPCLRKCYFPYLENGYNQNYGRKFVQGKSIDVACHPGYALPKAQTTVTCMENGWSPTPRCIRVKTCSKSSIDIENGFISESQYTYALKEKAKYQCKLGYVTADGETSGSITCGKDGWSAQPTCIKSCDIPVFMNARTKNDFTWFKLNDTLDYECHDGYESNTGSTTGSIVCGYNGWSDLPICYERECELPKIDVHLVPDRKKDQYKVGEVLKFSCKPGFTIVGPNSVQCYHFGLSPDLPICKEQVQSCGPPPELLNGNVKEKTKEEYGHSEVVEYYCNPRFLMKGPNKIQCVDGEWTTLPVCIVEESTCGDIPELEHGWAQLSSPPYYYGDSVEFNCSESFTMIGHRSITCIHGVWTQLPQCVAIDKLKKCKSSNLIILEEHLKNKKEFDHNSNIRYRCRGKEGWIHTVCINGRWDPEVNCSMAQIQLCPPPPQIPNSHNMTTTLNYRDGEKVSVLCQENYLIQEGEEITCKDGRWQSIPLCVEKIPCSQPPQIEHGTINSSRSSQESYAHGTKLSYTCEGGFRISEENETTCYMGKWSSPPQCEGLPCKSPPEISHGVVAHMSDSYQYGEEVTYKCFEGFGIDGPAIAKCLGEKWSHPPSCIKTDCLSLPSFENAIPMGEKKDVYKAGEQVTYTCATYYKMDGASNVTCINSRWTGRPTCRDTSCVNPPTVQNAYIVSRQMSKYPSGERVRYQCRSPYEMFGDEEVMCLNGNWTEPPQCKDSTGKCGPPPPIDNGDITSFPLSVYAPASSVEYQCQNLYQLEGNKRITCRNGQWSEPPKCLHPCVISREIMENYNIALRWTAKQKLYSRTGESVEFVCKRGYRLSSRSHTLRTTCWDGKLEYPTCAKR

| Substance | optical tweezer pulling of VWF-A2 (Avi-His/SpyTag, biotinylated construct) with 1.0 μM W1183R-CFH: contour length Lc (no CFH: 55,3 nm) [nm] | optical tweezer pulling of VWF-A2 with 1.0 μM W1183R-CFH: energy barrier position γ, Bell-Evans fit (no CFH: 0.71 nm) [nm] | optical tweezer pulling of VWF-A2 with 1.0 μM W1183R-CFH: persistent length Lp (no CFH: 0.28 nm) [nm] | optical tweezer pulling of VWF-A2 with 1.0 μM W1183R-CFH: unstressed unfolding rate ku0, Bell-Evans fit (no CFH: 0.15 s^-1) [s⁻¹] | optical tweezer pulling of VWF-A2 (Avi-His/SpyTag, biotinylated construct) with 1.0 μM WT-CFH: contour length Lc (no CFH: 55,3 nm) [nm] | optical tweezer pulling of VWF-A2 with 1.0 μM WT-CFH: energy barrier position γ, Bell-Evans fit (no CFH: 0.71 nm) [nm] | optical tweezer pulling of VWF-A2 with 1.0 μM WT-CFH: persistent length Lp (no CFH: 0.28 nm) [nm] | optical tweezer pulling of VWF-A2 with 1.0 μM WT-CFH: unstressed unfolding rate ku0, Bell-Evans fit (no CFH: 0.15 s^-1) [s⁻¹] |
| --- | --- | --- | --- | --- | --- | --- | --- | --- |
| human recombinant W1183R complement factor H (from UniProt P08603 19-1231) (natural protein) | 31.8 | 1.38 | 0.38 | 0.034 | – | – | – | – |
| human recombinant wild-type complement factor H (from UniProt P08603 19-1231) (natural protein) | – | – | – | – | 40 | 1.88 | 0.38 | 0.017 |
